Measured values from patent US20250326823A1.

How the values were obtained:
Assay in all cases: cell-based or functional assay
[1] = molecular target: SARS-CoV-2 spike (S) protein, variant B.1.427 (SARS-CoV-2)
[2] = molecular target: SARS-CoV-2 spike (S) protein, variant B.1.351 (SARS-CoV-2)
[3] = molecular target: SARS-CoV-2 spike (S) protein, variant B.1.617.1 (SARS-CoV-2)
[4] = molecular target: SARS-CoV-2 spike (S) protein, variant XBB.2.3.2 (SARS-CoV-2)
[5] = molecular target: SARS-CoV-2 spike (S) protein, variant B.1.617.2 (SARS-CoV-2)
[6] = molecular target: SARS-CoV-2 spike (S) protein, variant CH.1.1 (SARS-CoV-2) (UniProt P0DTC2)
[7] = molecular target: SARS-CoV-2 spike (S) protein, variant BA.2.86 (SARS-CoV-2)
[8] = molecular target: SARS-CoV-2 spike (S) protein, variant KP.3.1.1 (SARS-CoV-2) (UniProt P0DTC2)
[9] = molecular target: SARS-CoV-2 spike (S) protein, variant XBB.1.16.6 (SARS-CoV-2)
[10] = molecular target: SARS-CoV-2 spike protein, variant KP.2 (SARS-CoV-2)
[11] = molecular target: SARS-CoV-2 spike protein, variant KP.3 (SARS-CoV-2)
[12] = molecular target: SARS-CoV-2 spike (S) protein, variant XBB.1.5 (SARS-CoV-2)
[13] = molecular target: SARS-CoV-2 spike (S) protein, variant BA.4/5 (SARS-CoV-2)
[14] = molecular target: SARS-CoV-2 spike (S) protein, variant P.2 (SARS-CoV-2)
[15] = molecular target: SARS-CoV-2 spike (S) protein, variant P.1 (SARS-CoV-2)
[16] = molecular target: SARS-CoV-2 spike (S) protein, variant B.1.1.7 (SARS-CoV-2)
[17] = molecular target: SARS-CoV-2 spike (S) protein, variant B.1.621 (SARS-CoV-2)
[18] = molecular target: SARS-CoV-2 spike (S) protein, variant XBB (SARS-CoV-2)
[19] = molecular target: SARS-CoV-2 spike (S) protein, variant EG.5.1 (SARS-CoV-2) (UniProt P0DTC2)
[20] = molecular target: SARS-CoV-2 spike (S) protein, variant BA.1 (SARS-CoV-2)
[21] = molecular target: SARS-CoV-2 spike (S) protein, variant B.1.526 (SARS-CoV-2)
[22] = molecular target: SARS-CoV-2 spike (S) protein, variant B.1.525 (SARS-CoV-2)
[23] = molecular target: SARS-CoV-2 spike (S) protein, variant XEC (SARS-CoV-2) (UniProt P0DTC2)
[24] = molecular target: SARS-CoV-2 spike (S) protein, variant CH.1.1 (SARS-CoV-2)
[25] = molecular target: SARS-CoV-2 spike (S) protein, variant JD.1.1 (SARS-CoV-2)
[26] = molecular target: SARS-CoV-2 spike (S) protein, variant EG.5.1 (SARS-CoV-2)
[27] = molecular target: SARS-CoV-2 spike (S) protein, variant JN.1 (SARS-CoV-2)
[28] = molecular target: SARS-CoV-2 spike (S) protein, D614G (SARS-CoV-2) (UniProt P0DTC2)
[29] = molecular target: SARS-CoV-2 spike (S) protein, variant KP.3 (SARS-CoV-2) (UniProt P0DTC2)
[30] = molecular target: SARS-CoV-2 spike (S) protein, variant B.1.429 (SARS-CoV-2)
[31] = molecular target: SARS-CoV-2 spike (S) protein, variant KP.2 (SARS-CoV-2) (UniProt P0DTC2)
[32] = molecular target: SARS-CoV-2 spike (S) protein, variant KP.2.3 (SARS-CoV-2) (UniProt P0DTC2)
[33] = molecular target: SARS-CoV-2 spike (S) protein, variant JN.1 (SARS-CoV-2) (UniProt P0DTC2)
[34] = molecular target: SARS-CoV-2 spike (S) protein, variant LB.1 (SARS-CoV-2) (UniProt P0DTC2)
[35] = molecular target: SARS-CoV-2 spike (S) protein, variant BA.2.86 (SARS-CoV-2) (UniProt P0DTC2)

ADG20 (antibody)
neutralization IC50 [1]: 0.072 nM
neutralization IC80 [1]: 0.162 nM
neutralization IC50 [2]: 0.011 nM
neutralization IC80 [2]: 0.05 nM
neutralization IC50 [3]: 0.015 nM
neutralization IC80 [3]: 0.071 nM
neutralizing activity IC50 [4]: > 67 nM
neutralizing activity IC80 [4]: > 67 nM
neutralizing activity IC50 [5]: 0.11 nM
neutralizing activity IC80 [5]: 0.118 nM
neutralizing activity IC50 (µg/ml (caption; values match nM)) [6]: 13.7
neutralizing activity IC80 (µg/ml (caption; values match nM)) [6]: > 67
pseudovirus neutralization IC50 [7]: > 67 nM
pseudovirus neutralization IC80 [7]: > 67 nM
neutralizing activity IC50 (µg/ml (caption; values match nM)) [8]: > 67
neutralizing activity IC80 (µg/ml (caption; values match nM)) [8]: > 67
neutralizing activity IC50 [9]: > 67 nM
neutralizing activity IC80 [9]: > 67 nM
IC50 (nM), pseudovirus neutralization [10]: > 67 nM
IC50 (nM), pseudovirus neutralization [11]: > 67 nM
neutralizing activity IC50 [12]: > 67 nM
neutralizing activity IC80 [12]: > 67 nM
neutralizing activity IC50 [13]: > 67 nM
neutralizing activity IC80 [13]: > 67 nM
neutralization IC50 [14]: 0.034 nM
neutralization IC80 [14]: 0.121 nM
neutralizing activity IC50 [15]: 0.021 nM
neutralizing activity IC80 [15]: 0.117 nM
neutralization IC50 [16]: 0.106 nM
neutralization IC80 [16]: 0.424 nM
neutralizing activity IC50 [17]: 0.026 nM
neutralizing activity IC80 [17]: 0.131 nM
neutralizing activity IC50 [18]: 10.6 nM
neutralizing activity IC80 [18]: > 67 nM
neutralizing activity IC50 (µg/ml (caption; values match nM)) [19]: > 67
neutralizing activity IC80 (µg/ml (caption; values match nM)) [19]: > 67
neutralizing activity IC50 [20]: 13.9 nM
neutralizing activity IC80 [20]: > 67 nM
neutralizing activity IC50 [21]: 0.019 nM
neutralizing activity IC80 [21]: 0.081 nM
neutralizing activity IC50 [22]: 0.019 nM
neutralizing activity IC80 [22]: 0.101 nM
neutralizing activity IC50 (µg/ml (caption; values match nM)) [23]: > 67
neutralizing activity IC80 (µg/ml (caption; values match nM)) [23]: > 67
neutralizing activity IC50 [24]: 13.7 nM
neutralizing activity IC80 [24]: > 67 nM
pseudovirus neutralization IC50 [25]: > 67 nM
pseudovirus neutralization IC80 [25]: > 67 nM
pseudovirus neutralization IC50 [26]: > 67 nM
pseudovirus neutralization IC80 [26]: > 67 nM
pseudovirus neutralization IC50 [27]: > 67 nM
pseudovirus neutralization IC80 [27]: > 67 nM
neutralization IC50 [28]: 0.019 nM
neutralization IC80 [28]: 0.065 nM
neutralizing activity IC50 (µg/ml (caption; values match nM)) [29]: > 67
neutralizing activity IC80 (µg/ml (caption; values match nM)) [29]: > 67
neutralization IC50 [30]: 0.014 nM
neutralization IC80 [30]: 0.061 nM
neutralizing activity IC50 (µg/ml (caption; values match nM)) [31]: > 67
neutralizing activity IC80 (µg/ml (caption; values match nM)) [31]: > 67
neutralizing activity IC50 (µg/ml (caption; values match nM)) [32]: > 67
neutralizing activity IC80 (µg/ml (caption; values match nM)) [32]: > 67
neutralizing activity IC50 (µg/ml (caption; values match nM)) [33]: > 67
neutralizing activity IC80 (µg/ml (caption; values match nM)) [33]: > 67
neutralizing activity IC50 (µg/ml (caption; values match nM)) [34]: > 67
neutralizing activity IC80 (µg/ml (caption; values match nM)) [34]: > 67
neutralizing activity IC50 (µg/ml (caption; values match nM)) [35]: > 67
neutralizing activity IC80 (µg/ml (caption; values match nM)) [35]: > 67

AZD3152 (antibody)
IC50, pseudovirus neutralization [1]: 0.598 nM
IC80, pseudovirus neutralization [1]: 2.03 nM
IC50, pseudovirus neutralization [2]: 0.163 nM
IC80, pseudovirus neutralization [2]: 0.459 nM
IC50, pseudovirus neutralization [3]: 0.271 nM
IC80, pseudovirus neutralization [3]: 0.687 nM
IC50, pseudovirus neutralization [4]: 0.168 nM
IC80, pseudovirus neutralization [4]: 0.513 nM
IC50, pseudovirus neutralization [5]: 0.602 nM
IC80, pseudovirus neutralization [5]: 2.2 nM
neutralizing activity IC80 (µg/ml (caption; values match nM)) [6]: 1.59
pseudotyped neutralization potency IC50 [6]: 0.501 nM
pseudotyped neutralization potency IC80 [6]: 1.47 nM
IC50, pseudovirus neutralization [7]: 0.351 nM
IC80, pseudovirus neutralization [7]: 2.23 nM
neutralizing activity IC50 (µg/ml (caption; values match nM)) [8]: > 67
neutralizing activity IC80 (µg/ml (caption; values match nM)) [8]: > 67
IC50, pseudovirus neutralization [9]: > 67 nM
IC80, pseudovirus neutralization [9]: > 67 nM
IC50 (nM), pseudovirus neutralization [10]: > 67 nM
IC50 (nM), pseudovirus neutralization [11]: > 67 nM
IC50, pseudovirus neutralization [12]: 0.109 nM
IC80, pseudovirus neutralization [12]: 0.355 nM
IC50, pseudovirus neutralization [13]: 0.198 nM
IC80, pseudovirus neutralization [13]: 0.656 nM
IC50, pseudovirus neutralization [14]: 0.135 nM
IC80, pseudovirus neutralization [14]: 0.359 nM
IC50, pseudovirus neutralization [15]: 0.315 nM
IC80, pseudovirus neutralization [15]: 0.548 nM
IC50, pseudovirus neutralization [16]: 0.622 nM
IC80, pseudovirus neutralization [16]: 1.54 nM
IC50, pseudovirus neutralization [17]: 0.265 nM
IC80, pseudovirus neutralization [17]: 0.625 nM
IC50, pseudovirus neutralization [18]: 0.0748 nM
IC80, pseudovirus neutralization [18]: 0.349 nM
neutralizing activity IC50 (µg/ml (caption; values match nM)) [19]: > 67
neutralizing activity IC80 (µg/ml (caption; values match nM)) [19]: > 67
IC50, pseudovirus neutralization [20]: 0.0779 nM
IC80, pseudovirus neutralization [20]: 0.446 nM
IC50, pseudovirus neutralization [21]: 0.329 nM
IC80, pseudovirus neutralization [21]: 1.04 nM
IC50, pseudovirus neutralization [22]: 0.668 nM
IC80, pseudovirus neutralization [22]: 1.53 nM
neutralizing activity IC50 (µg/ml (caption; values match nM)) [23]: > 67
neutralizing activity IC80 (µg/ml (caption; values match nM)) [23]: > 67
IC50, pseudovirus neutralization [24]: 0.301 nM
IC80, pseudovirus neutralization [24]: 1.59 nM
IC50, pseudovirus neutralization [25]: > 67 nM
IC80, pseudovirus neutralization [25]: > 67 nM
IC50, pseudovirus neutralization [26]: > 67 nM
IC80, pseudovirus neutralization [26]: > 67 nM
IC50, pseudovirus neutralization [27]: 5.11 nM
IC80, pseudovirus neutralization [27]: 28 nM
IC50, pseudotyped neutralization potency [28]: 0.016 nM
IC50, pseudovirus neutralization [28]: 0.102 nM
IC80, pseudotyped neutralization potency [28]: 0.032 nM
IC80, pseudovirus neutralization [28]: 0.623 nM
neutralizing activity IC50 (µg/ml (caption; values match nM)) [29]: > 67
neutralizing activity IC80 (µg/ml (caption; values match nM)) [29]: > 67
IC50, pseudovirus neutralization [30]: 0.549 nM
IC80, pseudovirus neutralization [30]: 1.39 nM
neutralizing activity IC50 (µg/ml (caption; values match nM)) [31]: > 67
neutralizing activity IC80 (µg/ml (caption; values match nM)) [31]: > 67
neutralizing activity IC50 (µg/ml (caption; values match nM)) [32]: > 67
neutralizing activity IC80 (µg/ml (caption; values match nM)) [32]: > 67
neutralizing activity IC50 (µg/ml (caption; values match nM)) [33]: 5.11
neutralizing activity IC80 (µg/ml (caption; values match nM)) [33]: 28
neutralizing activity IC50 (µg/ml (caption; values match nM)) [34]: > 67
neutralizing activity IC80 (µg/ml (caption; values match nM)) [34]: > 67
neutralizing activity IC80 (µg/ml (caption; values match nM)) [35]: 2.23
